Results reported in patent US20260049138A1 (Chugai, published 2026).

Target: T1, CD3ε homodimer protein (human, UniProt P07766 23-126, limits assumed, sulfo-tag or biotin label in the ECL assays; amine-coupled to the chip in SPR)
T1 construct: also called human CD3ε homodimer protein; CD3 (CD3ε)
Experiment: SPR Biacore T200; CD3ε homodimer on CM4 chip;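 note: Single-residue variant antibodies injected as analyte over CD3ε homodimer immobilized by amine coupling, run at 25 °C in HBS-EP+ buffer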

T1 sequence (P07766 23-126 limits assumed): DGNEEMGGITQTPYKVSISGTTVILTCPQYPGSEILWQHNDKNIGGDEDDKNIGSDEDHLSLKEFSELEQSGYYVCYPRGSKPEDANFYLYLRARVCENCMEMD

Row | Binder | ratio of amounts bound Z=Y/X (altered form / CE115HA000)
1 | CE115HA000 V95S one-arm antibody (antibody, human IgG1, kappa, L234A L235A, N297A, name in Kabat numbering) heavy: QVQLVESGGGVVQPGRSLRLSCAASGFTFSNAWMHWVRQAPGKGLEWVAQIKAKSNNYATYYAESVKGRFTISRDDSKNSLYLQMNSLKTEDTAVYYCRYSHYGAYYGVDAWGQGTTVTVSSASTKGPSVFPLAPSSKSTSGGTAALGCLVKDYFPEPVTVSWNSGALTSGVHTFPAVLQSSGLYSLSSVVTVPSSSLGTQTYICNVNHKPSNTKVDKKVEPKSCDKTHTCPPCPAPEAAGGPSVFLFPPKPKDTLMISRTPEVTCVVVDVSHEDPEVKFNWYVDGVEVHNAKTKPREEQYASTYRVVSVLTVLHQDWLNGKEYKCKVSNKALPAPIEKTISKAKGQPREPQVYTLPPSRCELTKNQVSLSCAVKGFYPSDIAVEWESNGQPENNYKTTPPVLDSDGSFFLVSKLTVDKSRWQQGNVFSCSVMHEALHNHYTQKSLSLSPDYKDDDDK EPKSSDKTHTCPPCPAPELLGGPSVFLFPPKPKDTLMISRTPEVTCVVVDVSHEDPEVKFNWYVDGVEVHNAKTKPREEQYNSTYRVVSVLTVLHQDWLNGKEYKCKVSNKALPAPIEKTISKAKGQPREPQVCTLPPSRDELTKNQVSLWCLVKGFYPSDIAVEWESNGQPENNYKTTPPVLDSDGSFFLYSKLTVDKSRWQQGNVFSCSVMHEALHNRYTQKSLSLSP light: DIVMTQSPLSLPVTPGEPASISCRSSQSLVHSNRNTYLHWYQQKPGQAPRLLIYKVSNRFSGVPDRFSGSGSGTDFTLKISRVEAEDVGVYYCGQGTQVPYTFGQGTKLEIKRTVAAPSVFIFPPSDEQLKSGTASVVCLLNNFYPREAKVQWKVDNALQSGNSQESVTEQDSKDSTYSLSSTLTLSKADYEKHKVYACEVTHQGLSSPVTKSFNRGEC | 0.22
2 | CE115HA000 V95K one-arm antibody (antibody, human IgG1, kappa, L234A L235A, N297A, name in Kabat numbering) heavy: QVQLVESGGGVVQPGRSLRLSCAASGFTFSNAWMHWVRQAPGKGLEWVAQIKAKSNNYATYYAESVKGRFTISRDDSKNSLYLQMNSLKTEDTAVYYCRYKHYGAYYGVDAWGQGTTVTVSSASTKGPSVFPLAPSSKSTSGGTAALGCLVKDYFPEPVTVSWNSGALTSGVHTFPAVLQSSGLYSLSSVVTVPSSSLGTQTYICNVNHKPSNTKVDKKVEPKSCDKTHTCPPCPAPEAAGGPSVFLFPPKPKDTLMISRTPEVTCVVVDVSHEDPEVKFNWYVDGVEVHNAKTKPREEQYASTYRVVSVLTVLHQDWLNGKEYKCKVSNKALPAPIEKTISKAKGQPREPQVYTLPPSRCELTKNQVSLSCAVKGFYPSDIAVEWESNGQPENNYKTTPPVLDSDGSFFLVSKLTVDKSRWQQGNVFSCSVMHEALHNHYTQKSLSLSPDYKDDDDK EPKSSDKTHTCPPCPAPELLGGPSVFLFPPKPKDTLMISRTPEVTCVVVDVSHEDPEVKFNWYVDGVEVHNAKTKPREEQYNSTYRVVSVLTVLHQDWLNGKEYKCKVSNKALPAPIEKTISKAKGQPREPQVCTLPPSRDELTKNQVSLWCLVKGFYPSDIAVEWESNGQPENNYKTTPPVLDSDGSFFLYSKLTVDKSRWQQGNVFSCSVMHEALHNRYTQKSLSLSP light: DIVMTQSPLSLPVTPGEPASISCRSSQSLVHSNRNTYLHWYQQKPGQAPRLLIYKVSNRFSGVPDRFSGSGSGTDFTLKISRVEAEDVGVYYCGQGTQVPYTFGQGTKLEIKRTVAAPSVFIFPPSDEQLKSGTASVVCLLNNFYPREAKVQWKVDNALQSGNSQESVTEQDSKDSTYSLSSTLTLSKADYEKHKVYACEVTHQGLSSPVTKSFNRGEC | 0.64

Next, values leading:

Row | ratio of amounts bound Z=Y/X (altered form / CE115HA000) | Binder
3 | 0.24 | CE115HA000 V95E one-arm antibody (antibody, human IgG1, kappa, L234A L235A, N297A, name in Kabat numbering) heavy: QVQLVESGGGVVQPGRSLRLSCAASGFTFSNAWMHWVRQAPGKGLEWVAQIKAKSNNYATYYAESVKGRFTISRDDSKNSLYLQMNSLKTEDTAVYYCRYEHYGAYYGVDAWGQGTTVTVSSASTKGPSVFPLAPSSKSTSGGTAALGCLVKDYFPEPVTVSWNSGALTSGVHTFPAVLQSSGLYSLSSVVTVPSSSLGTQTYICNVNHKPSNTKVDKKVEPKSCDKTHTCPPCPAPEAAGGPSVFLFPPKPKDTLMISRTPEVTCVVVDVSHEDPEVKFNWYVDGVEVHNAKTKPREEQYASTYRVVSVLTVLHQDWLNGKEYKCKVSNKALPAPIEKTISKAKGQPREPQVYTLPPSRCELTKNQVSLSCAVKGFYPSDIAVEWESNGQPENNYKTTPPVLDSDGSFFLVSKLTVDKSRWQQGNVFSCSVMHEALHNHYTQKSLSLSPDYKDDDDK EPKSSDKTHTCPPCPAPELLGGPSVFLFPPKPKDTLMISRTPEVTCVVVDVSHEDPEVKFNWYVDGVEVHNAKTKPREEQYNSTYRVVSVLTVLHQDWLNGKEYKCKVSNKALPAPIEKTISKAKGQPREPQVCTLPPSRDELTKNQVSLWCLVKGFYPSDIAVEWESNGQPENNYKTTPPVLDSDGSFFLYSKLTVDKSRWQQGNVFSCSVMHEALHNRYTQKSLSLSP light: DIVMTQSPLSLPVTPGEPASISCRSSQSLVHSNRNTYLHWYQQKPGQAPRLLIYKVSNRFSGVPDRFSGSGSGTDFTLKISRVEAEDVGVYYCGQGTQVPYTFGQGTKLEIKRTVAAPSVFIFPPSDEQLKSGTASVVCLLNNFYPREAKVQWKVDNALQSGNSQESVTEQDSKDSTYSLSSTLTLSKADYEKHKVYACEVTHQGLSSPVTKSFNRGEC
4 | 0.19 | CE115HA000 V95G one-arm antibody (antibody, human IgG1, kappa, L234A L235A, N297A, name in Kabat numbering) heavy: QVQLVESGGGVVQPGRSLRLSCAASGFTFSNAWMHWVRQAPGKGLEWVAQIKAKSNNYATYYAESVKGRFTISRDDSKNSLYLQMNSLKTEDTAVYYCRYGHYGAYYGVDAWGQGTTVTVSSASTKGPSVFPLAPSSKSTSGGTAALGCLVKDYFPEPVTVSWNSGALTSGVHTFPAVLQSSGLYSLSSVVTVPSSSLGTQTYICNVNHKPSNTKVDKKVEPKSCDKTHTCPPCPAPEAAGGPSVFLFPPKPKDTLMISRTPEVTCVVVDVSHEDPEVKFNWYVDGVEVHNAKTKPREEQYASTYRVVSVLTVLHQDWLNGKEYKCKVSNKALPAPIEKTISKAKGQPREPQVYTLPPSRCELTKNQVSLSCAVKGFYPSDIAVEWESNGQPENNYKTTPPVLDSDGSFFLVSKLTVDKSRWQQGNVFSCSVMHEALHNHYTQKSLSLSPDYKDDDDK EPKSSDKTHTCPPCPAPELLGGPSVFLFPPKPKDTLMISRTPEVTCVVVDVSHEDPEVKFNWYVDGVEVHNAKTKPREEQYNSTYRVVSVLTVLHQDWLNGKEYKCKVSNKALPAPIEKTISKAKGQPREPQVCTLPPSRDELTKNQVSLWCLVKGFYPSDIAVEWESNGQPENNYKTTPPVLDSDGSFFLYSKLTVDKSRWQQGNVFSCSVMHEALHNRYTQKSLSLSP light: DIVMTQSPLSLPVTPGEPASISCRSSQSLVHSNRNTYLHWYQQKPGQAPRLLIYKVSNRFSGVPDRFSGSGSGTDFTLKISRVEAEDVGVYYCGQGTQVPYTFGQGTKLEIKRTVAAPSVFIFPPSDEQLKSGTASVVCLLNNFYPREAKVQWKVDNALQSGNSQESVTEQDSKDSTYSLSSTLTLSKADYEKHKVYACEVTHQGLSSPVTKSFNRGEC
